The test concerns the target Cdc42 biosensor with the effector-binding mutations T35S and Y40C in Cdc42 (UniProt Q13153).

Consider one substance from publication PMC4010534.

As to “guanine nucleotide dissociation inhibitor (from UniProt P52565 1-204) (natural protein)”, the difference in FRET/mCer ratio of the biosensor by fluorometry in HEK293 cells, GDI-bound (with excess GDI) against GDI-free was determined as 17%.
